In test [1] the target is T1, rhFAP (Homo sapiens, UniProt Q12884).
T1 sequence (Q12884 1-760): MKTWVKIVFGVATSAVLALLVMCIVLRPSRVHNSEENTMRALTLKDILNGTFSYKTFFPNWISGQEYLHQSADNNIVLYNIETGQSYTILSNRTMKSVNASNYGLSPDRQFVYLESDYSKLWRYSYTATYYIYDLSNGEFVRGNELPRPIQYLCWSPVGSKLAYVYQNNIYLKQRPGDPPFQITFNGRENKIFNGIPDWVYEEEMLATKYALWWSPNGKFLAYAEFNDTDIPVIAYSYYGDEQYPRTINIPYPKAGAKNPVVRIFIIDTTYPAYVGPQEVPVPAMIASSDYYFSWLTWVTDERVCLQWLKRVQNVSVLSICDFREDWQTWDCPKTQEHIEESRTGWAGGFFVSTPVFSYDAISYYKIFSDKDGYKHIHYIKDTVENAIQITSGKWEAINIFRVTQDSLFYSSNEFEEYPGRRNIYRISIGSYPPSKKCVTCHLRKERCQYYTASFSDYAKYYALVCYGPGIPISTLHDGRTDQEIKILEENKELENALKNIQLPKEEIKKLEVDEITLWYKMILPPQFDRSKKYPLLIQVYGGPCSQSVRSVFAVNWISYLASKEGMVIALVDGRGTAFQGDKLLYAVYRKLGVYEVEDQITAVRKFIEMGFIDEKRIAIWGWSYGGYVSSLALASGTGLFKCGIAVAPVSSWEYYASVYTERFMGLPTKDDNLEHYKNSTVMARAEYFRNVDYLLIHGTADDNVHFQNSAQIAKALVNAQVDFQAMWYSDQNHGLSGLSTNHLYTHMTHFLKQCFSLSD
Kind of test: Probe cleavage by recombinant human FAP (fluorescence read). Format: biochemical.

Test [2] addresses T2, rhPREP (Homo sapiens, UniProt P48147).
T2 sequence (P48147 1-710): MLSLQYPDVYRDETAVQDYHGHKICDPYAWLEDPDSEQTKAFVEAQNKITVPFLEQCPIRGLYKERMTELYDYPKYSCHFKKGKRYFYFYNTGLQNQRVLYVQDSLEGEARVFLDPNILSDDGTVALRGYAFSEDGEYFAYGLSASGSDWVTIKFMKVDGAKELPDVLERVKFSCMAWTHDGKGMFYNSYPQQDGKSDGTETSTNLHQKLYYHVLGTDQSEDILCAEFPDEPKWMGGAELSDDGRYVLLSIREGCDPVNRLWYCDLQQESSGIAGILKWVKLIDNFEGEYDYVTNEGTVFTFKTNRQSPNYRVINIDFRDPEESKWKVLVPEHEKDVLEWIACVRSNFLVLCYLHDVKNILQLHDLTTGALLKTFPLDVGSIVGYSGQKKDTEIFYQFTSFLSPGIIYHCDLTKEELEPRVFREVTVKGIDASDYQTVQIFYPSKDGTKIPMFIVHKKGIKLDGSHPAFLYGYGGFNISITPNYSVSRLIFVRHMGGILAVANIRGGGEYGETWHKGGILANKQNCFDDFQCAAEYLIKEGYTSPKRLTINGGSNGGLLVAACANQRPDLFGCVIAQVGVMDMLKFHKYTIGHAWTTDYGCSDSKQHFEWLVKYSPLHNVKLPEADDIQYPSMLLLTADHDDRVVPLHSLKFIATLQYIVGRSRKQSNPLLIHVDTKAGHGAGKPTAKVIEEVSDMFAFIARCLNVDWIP
Description: Probe cleavage by recombinant human PREP. Format: biochemical. The following applies: probe 5 μM, enzyme 0.1 μg/ml, read 480/530 nm.

Test [3] addresses rhDPPIV (Homo sapiens, UniProt P27487). Kind of test: Probe cleavage by recombinant human DPPIV (exopeptidase activity). The following applies: probe 5 μM, enzyme 0.1 μg/ml, read 480/530 nm. The format is biochemical.
Test [4] deals with activated neutrophil lysate. Description: Assessment on activated neutrophil lysate. Particulars: data not shown.
Test [5] has as its target T3, FAP (Homo sapiens, UniProt Q12884).
T3 sequence (Q12884 24-760 limits assumed): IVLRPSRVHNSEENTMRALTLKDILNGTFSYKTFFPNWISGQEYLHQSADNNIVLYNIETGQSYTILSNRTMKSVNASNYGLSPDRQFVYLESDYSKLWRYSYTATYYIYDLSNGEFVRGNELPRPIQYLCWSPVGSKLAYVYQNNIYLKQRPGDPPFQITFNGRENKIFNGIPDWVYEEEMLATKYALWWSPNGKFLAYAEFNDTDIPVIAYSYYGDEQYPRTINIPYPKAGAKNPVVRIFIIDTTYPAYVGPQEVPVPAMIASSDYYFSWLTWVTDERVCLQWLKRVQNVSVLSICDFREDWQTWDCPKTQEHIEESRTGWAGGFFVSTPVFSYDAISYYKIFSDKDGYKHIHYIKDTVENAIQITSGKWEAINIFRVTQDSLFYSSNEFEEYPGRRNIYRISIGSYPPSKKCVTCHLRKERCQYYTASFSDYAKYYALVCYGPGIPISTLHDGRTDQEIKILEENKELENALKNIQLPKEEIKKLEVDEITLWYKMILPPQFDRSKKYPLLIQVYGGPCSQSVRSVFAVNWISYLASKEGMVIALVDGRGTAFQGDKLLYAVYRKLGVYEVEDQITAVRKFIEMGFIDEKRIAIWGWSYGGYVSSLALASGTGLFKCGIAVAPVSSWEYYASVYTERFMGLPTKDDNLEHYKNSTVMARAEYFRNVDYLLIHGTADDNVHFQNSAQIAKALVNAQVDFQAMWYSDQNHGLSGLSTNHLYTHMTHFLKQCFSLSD
Particulars: Bainbridge et al; cited from earlier work.

Sequence of rhDPPIV (P27487 whole entry): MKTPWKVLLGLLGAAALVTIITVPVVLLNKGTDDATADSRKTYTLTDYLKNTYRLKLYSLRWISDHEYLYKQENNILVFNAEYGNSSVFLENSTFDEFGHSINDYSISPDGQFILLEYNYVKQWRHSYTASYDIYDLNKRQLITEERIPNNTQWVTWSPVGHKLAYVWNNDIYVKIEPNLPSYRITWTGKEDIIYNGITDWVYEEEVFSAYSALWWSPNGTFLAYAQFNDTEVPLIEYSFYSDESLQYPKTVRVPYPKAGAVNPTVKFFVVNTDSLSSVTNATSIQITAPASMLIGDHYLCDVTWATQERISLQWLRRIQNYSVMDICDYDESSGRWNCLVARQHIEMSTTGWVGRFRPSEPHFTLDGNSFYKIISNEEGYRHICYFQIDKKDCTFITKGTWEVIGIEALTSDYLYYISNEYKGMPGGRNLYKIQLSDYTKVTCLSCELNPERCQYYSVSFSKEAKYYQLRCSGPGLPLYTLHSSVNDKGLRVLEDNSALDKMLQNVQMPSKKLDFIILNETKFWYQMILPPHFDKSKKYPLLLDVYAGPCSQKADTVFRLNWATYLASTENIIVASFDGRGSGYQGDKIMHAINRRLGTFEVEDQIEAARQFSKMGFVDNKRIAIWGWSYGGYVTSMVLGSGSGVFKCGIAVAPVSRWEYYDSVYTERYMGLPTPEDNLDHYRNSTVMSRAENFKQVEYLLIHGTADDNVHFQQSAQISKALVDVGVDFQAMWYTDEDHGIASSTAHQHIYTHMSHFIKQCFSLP

For the substance “Lys(MethylRed)-Val-(D)Ser-Pro-Ser-Gln-Gly-Lys(5-FAM)-[Peg2-(D)Lys]3-NH2 [FAP-sP, reference compound]”, in test [1] (comparison between probe iterations), the “signal (relative fluorescence intensity) with rhFAP” value was “improved signal characteristics”. The “FAP specificity (over PREP)” value in test [1] (from recombinant enzyme assessment) is “FAP specificity”. The “cleavage by rhPREP” value is given as “no cleavage” in test [2] and “no rhPREP cleavage” in test [2] (listed as FAP-sp). Also, the “cleavage by rhDPPIV (exopeptidase activity)” value in test [3] is listed as “no cleavage”. Further, the “MALDI-TOF analysis of probe after activated neutrophil lysate” value in test [4] is on record as “all FAP-sP probe was cleaved”.

On to VsPSQG, for which the “specificity over PREP” value in test [5] is listed as “specificity over PREP”.

(Values after US20250042943A1, “FAP DETECTION” (THE UNIVERSITY COURT OF THE UNIVERSITY OF EDINBURGH, priority 2021, published 2025).)
